Results published in US20250297013A1 (HK INNO N, published 2025).

Tests used:
HLA-G monomer (signal …) = biological target: T1, HLA-G monomer (signal peptide-b2m-HLA-G-6xHis antigen of Example 1, monomer fraction) (human); experiment: SPR, HLA-G monomer
T1 construct: also called b2m-HLA-G antigen

[1] = biological target: T2, HLA-G antigen produced in Example 1 (signal peptide-b2m-HLA-G-6xHis; monomer or dimer not stated) (human); experiment: ILT2 block ELISA: competitor ILT-2-Fc coated, antigen of Example 1 pre-mixed with antibody dilutions, anti-His-HRP detection
T2 construct: also called b2m-HLA-G antigen

HLA-G dimer (signal …) [2] = biological target: T3, HLA-G dimer (signal peptide-b2m-HLA-G-6xHis antigen of Example 1, dimer fraction) (human); experiment: CD8a block ELISA: dimeric antigen coated, antibody 0.391 nM, competitor CD8a-His 100 nM, anti-CD8a-HRP detection
T3 construct: also called HLA-G multimers
Experimental: The diluted anti-HLA-G antibody was dispensed into 96 wells and allowed to react for one hour. […] After a reaction for one hour, each well was washed with PBS-T, and a tetramethylbenzidine (TMB) solution was added to each well to develop color.

[3] = biological target: T2, HLA-G antigen produced in Example 1 …; experiment: Octet (BLI); form of the antigen not stated
HLA-G dimer (signal …) [4] = biological target: T3, HLA-G dimer (signal …); experiment: SPR, HLA-G dimer

Binder	Kd (HLA-G monomer (signal …)) [nM]	IC50 [1] [nM]	CD8a Block EIA (%) (HLA-G dimer (signal …) [2])	Kd [3] [nM]	Kd (HLA-G dimer (signal …) [4]) [nM]
Anti-HLA-G antibody 1 (antibody, V domains shown) VH: EVQLLESGGGLVQPGGSLRLSCAASGFTFSDYAMSWVRQAPGKGLEWVSVISHDGDRVYYADSVKGRFTISRDNSKNTLYLQMNSLRAEDTAVYYCAKGPRRIANAIFDYWGQGTLVTVSS VL: QLVLTQPPSVSGAPGQKVTISCSGSSSNIGHSYVSWYQQLPGTAPKLLIYGDNNRPSGVPDRFSGSKSGTSASLAITGLQAEDEADYYCQSYDSSLSGYVFGTGTKVTVL	15	155	39.5	0.284	1.11
Anti-HLA-G antibody 2 (antibody, IgG1, V domains shown) VH: EVQLLESGGGLVQPGGSLRLSCAASGFTFSDYAMSWVRQAPGKGLEWVSVISHDGGSIYYADSVKGRFTISRDNSKNTLYLQMNSLRAEDTAVYYCAKGPRRIANAIFDYWGQGTLVTVSS VL: QFVLTQPPSVSAAPGQKVTISCSGSNSNIGNSYVSWYQQVPGAAPRLLIYGSTNRPSGVPDRFSGSKSGTSASLAITGLQAEDEADYYCQSYDSSLSGYVFGTGTKVTVL	9.3	146	39	0.549	0.841
Anti-HLA-G antibody 4 (antibody, IgG1, V domains shown) VH: EVQLLESGGGLVQPGGSLRLSCAASGFTFSDYSMSWVRQAPGKGLEWVSAISPDSGSKYYADSVKGRFTISRDNSKNTLYLQMNSLRAEDTAVYYCAKGPRHLTNNIFDYWGQGTLVTVSS VL: QSVLTQPPSASGTPGQRVTISCTGSSSNIGSNYVSWYQQLPGTAPKLLIYADSNRPSGVPDRFSGSKSGTSASLAISGLRSEDEADYYCASWDYSLSGYVFGGGTKLTVL	–	144	32.1	1.45	4.88
Anti-HLA-G antibody 3 (antibody, IgG1, V domains shown) VH: EVQLLESGGGLVQPGGSLRLSCAASGFTFSDYSMSWVRQAPGKGLEWVSAISPDRSLEYYADSVKGRFTISRDNSKNTLYLQMNSLRAEDTAVYYCAKGPRHLTNNIFDYWGQGTLVTVSS VL: QFVLTQPPSVSAAPGQKVTISCSGSSSNIGHSYVSWYQQLPGTAPKLLIYGNIHRPSGVPDRFSGSTSGTSASLAITGLQADDEADYYCGVWDSSLSAVVFGGGTKLTVL	28.1	164	37.7	1.06	3.98
